Measured values: publication PMC6451337, “The Toxoplasma gondii dense granule protein TgGRA3 interacts with host Golgi and dysregulates anterograde transport” (Biology Open, 2019)

B1: GRA3_(43-161), cleaved from GST (domain or fragment, Toxoplasma gondii, UniProt B6KEU8 43-161, looked up)
chain: ADQPENHQALAEPVTGVGEAGVSPVNEAGESYSSATSGVQEATAPGAVLLDAIDAESDKVDNQAEGGERMKKVEEELSLLRRELYDRTDRPGLKRAVILSLATSAAIGGRMVSRTLRDN
notes: amplified from parasite cDNA; Cloned at the BamHI site of pGEX6-P3; also called TgGRA3 recombinant protein; source: E. coli BL21, purified on glutathione-Sepharose, cleaved with PreScission protease; not shown: GST, N-terminal, cleaved
B2: GRA3_HA-Δ43-71 (domain or fragment, Toxoplasma gondii, UniProt B6KEU8 72-161, looked up)
chain: ESYSSATSGVQEATAPGAVLLDAIDAESDKVDNQAEGGERMKKVEEELSLLRRELYDRTDRPGLKRAVILSLATSAAIGGRMVSRTLRDN
notes: also called GST-HA-Δ43-71, after cleavage; source: E. coli BL21, captured on glutathione-Sepharose beads, cleaved with PreScission protease; not shown: GST, N-terminal, cleaved; HA, N-terminal, kept

Key:
[1] = biological target: the molecule itself; experiment: SEC; GRA3_(43-161) cleaved from GST with PreScission protease, Superdex 200 Increase 3.2/300 column, AKTA Micro FPLC; protein standards 12,000-200,000 for the standard curve
[2] = biological target: the molecule itself; experiment: native gel or EMSA; proteins cleaved from glutathione-Sepharose beads with PreScission protease in 25 mM Tris pH 8, 1 mM DTT, 0.5 mM PMSF, 1 mM EDTA; 10% Tris-glycine native gel, unheated against heated; Coomassie Blue stain and Western blot

| Protein | stoichiometry N [1] | binding result [2] |
| --- | --- | --- |
| B1 | 2 |  |
| B2 |  | binds |
